Several values for one entry are separate records, joined by “and”; a condition that tells them apart may be missing. Equal entries are not always repeated.
Key:
[1] = biological target: cellular (native) canine TK1 from MDCK cells (dog (endogenous in MDCK)); experiment: SEC; Superose 12, 0.01 M HEPES/KOH pH 7.6, 0.15 M NH4Cl, 0.02% NaN3; crude cell extracts (MDCK, CEM), untreated or treated with DTE before chromatography; fractions read by TK1 activity and western blot
[2] = biological target: canine serum TK1 (dog (endogenous in serum)); experiment: SEC; Superose 12, 0.01 M HEPES/KOH pH 7.6, 0.15 M NH4Cl, 0.02% NaN3; sera diluted 1:1, untreated or pre-treated with 20 mM DTE; fractions read by TK1 activity and immunoaffinity capture with western blot
[3] = biological target: the molecule itself; experiment: as above
[4] = biological target: the molecule itself; experiment: SEC; Superose 12, 0.01 M HEPES/KOH pH 7.6, 0.15 M NH4Cl, 0.02% NaN3, no reducing agent in the buffer; 4 ug of freshly isolated recombinant TK1, untreated or pre-incubated with 20 mM DTE for 30 min on ice; fractions read by TK1 activity and western blot
[5] = biological target: the molecule itself; experiment: SEC; Superose 12, 0.01 M HEPES/KOH pH 7.6, 0.15 M NH4Cl, 0.02% NaN3; crude cell extracts (MDCK, CEM), untreated or treated with DTE before chromatography; fractions read by TK1 activity and western blot

## cellular (native) canine TK1 from MDCK cells (enzyme)
[1]
  stoichiometry N: 2 and 4

## canine serum TK1 (enzyme)
[2]
  stoichiometry N: 2 and 4

B1: human serum TK1 (enzyme, human (endogenous in serum), UniProt P04183 1-234, looked up)
chain: MSCINLPTVLPGSPSKTRGQIQVILGPMFSGKSTELMRRVRRFQIAQYKCLVIKYAKDTRYSSSFCTHDRNTMEALPACLLRDVAQEALGVAVIGIDEGQFFPDIVEFCEAMANAGKTVIVAALDGTFQRKPFGAILNLVPLAESVVKLTAVCMECFREAAYTKRLGTEKEVEVIGGADKYHSVCRLCYFKKASGQPAGPDNKENCPVPGKPGEAVAARKLFAPQQILQCSPAN
notes: thymidine kinase 1, human, serum form; polypeptide of apparent MW 25 kDa on western blot; source: endogenous, pooled sera from human patients with acute lymphocytic leukemia
[3]
  stoichiometry N: 2 and 4

B2: recombinant human thymidine kinase 1 (enzyme, UniProt P04183 1-234, looked up)
chain: B1 chain
notes: thymidine kinase 1, human, full-length cDNA; vector pEXP-5NT/TOPO; also called hTK1; human TK1
[4]
  stoichiometry N: 2 and 4

B3: cellular (native) human TK1 from CEM cells (enzyme, human (endogenous in CCRF-CEM), UniProt P04183 1-234, looked up)
chain: B1 chain
notes: thymidine kinase 1, human, endogenous in CCRF-CEM cells; 25 kDa band on western blot; also called cytosolic human TK1; source: endogenous, crude CCRF-CEM cell extract
[5]
  stoichiometry N: 2 and 4
